Marks after values point to notes of the source that are not given here.
What was measured:
HPV-16 genome = test: qPCR sensitivity against HPV-16 copy number (known-copy HPV-16 DNA among 10 ng normal human DNA); conditions: for reaction under 30 copies of HPV-16 genome: among 10 ng normal DNA, triplicate qPCR; for number of reactions against 10 HPV-16 copies / number of reactions under 30 HPV-16 copies: samples tested 3 times, 10 ng DNA from healthy individual
From the text: All samples were run in triplicates.
To seek the most promising primer-probe set in the viewpoint of sensitivity, Applicants evaluated the sensitivity analysis for these candidate primer-probe sets. […] Therefore, the sensitivity of E6 (FIG. 3A) and E7 (FIG. 3B) was also 30 copies. […] The candidate primer-probe sets were the “Min-4” (FIG. 3C), “Min-5” (FIG. 3D), “Min-6” (FIG. 3E), “Max-10” (FIG. 3F), “E6-11” (FIG. 3G), “E6-13” (FIG. 3H), respectively.
In addition, Applicants performed sensitivity analysis to identify the most sensitive primer/probe set from among the candidate sets.
To validate the function of primer/probe sets, Applicants calculated the slope of delta Rn against cycle threshold for HPV-16 copy number detection from defined HPV copy number DNA derived from CaSki cell line.

HPV-16 = test: qPCR sensitivity against HPV-HNSCC tumor samples diluted among 10 ng normal human DNA; conditions: for sensitivity under 100 cells / sensitivity under single cells / sensitivity under 10 cells: 32 HPV-HNSCC tumor samples; for sensitivity under single cells: 6.6 pg DNA; for sensitivity under 10 cells: 66 pg DNA; for Sensitivity, 1 cell / Sensitivity, 3 cells / Sensitivity, 10 cells / Sensitivity, 30 cells / Sensitivity, 100 cells: tumor DNA dilution, fraction of 32 samples

B1: BR E1-4: HPV-16 E1 region primer/probe set, SEQ ID NO: 37-39 (nucleic acid)
DNA 1: ATGCACAATTGGCAGACACTA
DNA 2: ACAATCCTTTACAATTTTTGCCTGT
DNA 3: TAATGCAAGTGCCTTTCTAAAAAGT
modifications: chemistry not given here
Q: Which “reaction under 30 copies of HPV-16 genome” value (“reaction under 30 copies” below) (HPV-16 genome) does the source give for B1 here?
A: Its value is “consistently amplified”.

Q: What about the “reaction under 30 copies” value (HPV-16 genome; listed as Min-4) of the same molecule?
A: Its value is “react consistently”.

Q: What about the “number of reactions against 10 HPV-16 copies” value (HPV-16 genome) of the same molecule?
A: The value was 2 reactions.

Q: What about the “number of reactions under 30 HPV-16 copies” value (HPV-16 genome) of the same molecule?
A: Its value is 3 reactions.

Q: What about the “sensitivity under 100 cells” value (HPV-16) of the same molecule?
A: The value was 93.8%.

Q: What about the “sensitivity under single cells” value (HPV-16) of the same molecule?
A: The value was 21.9%.

Q: What about the “sensitivity under 10 cells” value (HPV-16) of the same molecule?
A: The value was 78.1%.

Q: What about the “Threshold of tumor cell numbers for HPV-16 detection” value (“Threshold of tumor cell numbers” below) (HPV-16; Sample # 1) of the same molecule?
A: Its value is 150.0 tumor cells.

Q: And the “Threshold of tumor cell numbers” value (HPV-16; Sample # 2)?
A: The value was 150.0 tumor cells.

Q: And the “Threshold of tumor cell numbers” value (HPV-16; Sample # 3)?
A: Its value is 1.2 tumor cells.

Q: What about the “Threshold of tumor cell numbers” value (HPV-16; Sample # 4) of the same molecule?
A: Its value is 6.0 tumor cells.

Q: And the “Threshold of tumor cell numbers” value (HPV-16; Sample # 5)?
A: The value was 30.0 tumor cells.

Q: What about the “Threshold of tumor cell numbers” value (HPV-16; Sample # 6) of the same molecule?
A: The value was 30.0 tumor cells.

Q: What about the “Threshold of tumor cell numbers” value (HPV-16; Sample # 7) of the same molecule?
A: Its value is 30.0 tumor cells.

Q: And the “Threshold of tumor cell numbers” value (HPV-16; Sample # 8)?
A: The value was 50.0 tumor cells.

Q: And the “Threshold of tumor cell numbers” value (HPV-16; Sample # 9)?
A: Its value is 1.2 tumor cells.

Q: What about the “Threshold of tumor cell numbers” value (HPV-16; Sample # 10) of the same molecule?
A: Its value is 1.2 tumor cells.

Q: And the “Threshold of tumor cell numbers” value (HPV-16; Sample # 11)?
A: The value was 1.2 tumor cells.

Q: What about the “Threshold of tumor cell numbers” value (HPV-16; Sample # 12) of the same molecule?
A: The value was 3.0 tumor cells.

Q: What about the “Threshold of tumor cell numbers” value (HPV-16; Sample # 13) of the same molecule?
A: The value was 6.0 tumor cells.

Q: And the “Threshold of tumor cell numbers” value (HPV-16; Sample # 14)?
A: The value was 6.0 tumor cells.

Q: What about the “Threshold of tumor cell numbers” value (HPV-16; Sample # 15) of the same molecule?
A: The value was 6.0 tumor cells.

Q: And the “Threshold of tumor cell numbers” value (HPV-16; Sample # 16)?
A: The value was 6.0 tumor cells.

Q: And the “Threshold of tumor cell numbers” value (HPV-16; Sample # 17)?
A: Its value is 6.0 tumor cells.

Q: What about the “Threshold of tumor cell numbers” value (HPV-16; Sample # 18) of the same molecule?
A: Its value is 1.2 tumor cells.

Q: What about the “Threshold of tumor cell numbers” value (HPV-16; Sample # 19) of the same molecule?
A: Its value is 0.3 tumor cells.

Q: What about the “Threshold of tumor cell numbers” value (HPV-16; Sample # 20) of the same molecule?
A: Its value is 1.2 tumor cells.

Q: What about the “Threshold of tumor cell numbers” value (HPV-16; Sample # 21) of the same molecule?
A: The value was 0.6 tumor cells.

Q: What about the “Threshold of tumor cell numbers” value (HPV-16; Sample # 22) of the same molecule?
A: The value was 0.3 tumor cells.

Q: What about the “Threshold of tumor cell numbers” value (HPV-16; Sample # 23) of the same molecule?
A: The value was 1.2 tumor cells.

Q: And the “Threshold of tumor cell numbers” value (HPV-16; Sample # 24)?
A: The value was 0.6 tumor cells.

Q: What about the “Threshold of tumor cell numbers” value (HPV-16; Sample # 25) of the same molecule?
A: Its value is 1.2 tumor cells.

Q: And the “Threshold of tumor cell numbers” value (HPV-16; Sample # 26)?
A: Its value is 0.6 tumor cells.

Q: What about the “Threshold of tumor cell numbers” value (HPV-16; Sample # 27) of the same molecule?
A: The value was 0.6 tumor cells.

Q: And the “Threshold of tumor cell numbers” value (HPV-16; Sample # 28)?
A: Its value is 1.0 tumor cells.

Q: And the “Threshold of tumor cell numbers” value (HPV-16; Sample # 29)?
A: Its value is 1.0 tumor cells.

Q: And the “Threshold of tumor cell numbers” value (HPV-16; Sample # 30)?
A: The value was 30.0 tumor cells.

Q: And the “Threshold of tumor cell numbers” value (HPV-16; Sample # 31)?
A: Its value is 0.6 tumor cells.

Q: And the “Threshold of tumor cell numbers” value (HPV-16; Sample # 32)?
A: The value was 9.0 tumor cells.

Q: And the “Sensitivity, 1 cell” value (HPV-16)?
A: Its value is 0.219.

Q: What about the “Sensitivity, 3 cells” value (HPV-16) of the same molecule?
A: Its value is 0.531*.

Q: What about the “Sensitivity, 10 cells” value (HPV-16) of the same molecule?
A: Its value is 0.781*.

Q: What about the “Sensitivity, 30 cells” value (HPV-16) of the same molecule?
A: Its value is 0.875.

Q: What about the “Sensitivity, 100 cells” value (HPV-16) of the same molecule?
A: Its value is 0.938.

B2: BR E6-1: HPV-16 E6 region (172-373 bp) primer/probe set, SEQ ID NO: 58-60 (nucleic acid)
DNA 1: CAGTTACTGCGACGTGAGGT
DNA 2: ACAGCATATGGATTCCCATCTC
DNA 3: ACTTTGCTTTTCGGGATTTATGCATAGTA
modifications: chemistry not given here
Q: For B2, which “reaction under 30 copies” value (HPV-16 genome) is on record?
A: Its value is “consistently amplified”.

Q: What about the “reaction under 30 copies” value (HPV-16 genome; listed as E6-11) of the same molecule?
A: The value was “react consistently”.

Q: And the “number of reactions against 10 HPV-16 copies” value (HPV-16 genome)?
A: The value was “one”.

Q: And the “number of reactions under 30 HPV-16 copies” value (HPV-16 genome)?
A: The value was 3 reactions.

Q: What about the “sensitivity under 100 cells” value (HPV-16) of the same molecule?
A: Its value is 87.5%.

Q: And the “sensitivity under single cells” value (HPV-16)?
A: Its value is 3.1%.

Q: What about the “sensitivity under 10 cells” value (HPV-16) of the same molecule?
A: Its value is 46.9%.

Q: What about the “Threshold of tumor cell numbers” value (HPV-16; Sample # 1) of the same molecule?
A: The value was 150.0 tumor cells.

Q: What about the “Threshold of tumor cell numbers” value (HPV-16; Sample # 2) of the same molecule?
A: The value was 30.0 tumor cells.

Q: And the “Threshold of tumor cell numbers” value (HPV-16; Sample # 3)?
A: Its value is 150.0 tumor cells.

Q: And the “Threshold of tumor cell numbers” value (HPV-16; Sample # 4)?
A: The value was 60.0 tumor cells.

Q: And the “Threshold of tumor cell numbers” value (HPV-16; Sample # 5)?
A: Its value is 30.0 tumor cells.

Q: What about the “Threshold of tumor cell numbers” value (HPV-16; Sample # 6) of the same molecule?
A: The value was 60.0 tumor cells.

Q: What about the “Threshold of tumor cell numbers” value (HPV-16; Sample # 7) of the same molecule?
A: Its value is 30.0 tumor cells.

Q: What about the “Threshold of tumor cell numbers” value (HPV-16; Sample # 8) of the same molecule?
A: Its value is 150.0 tumor cells.

Q: What about the “Threshold of tumor cell numbers” value (HPV-16; Sample # 9) of the same molecule?
A: Its value is 30.0 tumor cells.

Q: What about the “Threshold of tumor cell numbers” value (HPV-16; Sample # 10) of the same molecule?
A: Its value is 30.0 tumor cells.

Q: What about the “Threshold of tumor cell numbers” value (HPV-16; Sample # 11) of the same molecule?
A: Its value is 30.0 tumor cells.

Q: What about the “Threshold of tumor cell numbers” value (HPV-16; Sample # 12) of the same molecule?
A: The value was 15.0 tumor cells.

Q: What about the “Threshold of tumor cell numbers” value (HPV-16; Sample # 13) of the same molecule?
A: The value was 60.0 tumor cells.

Q: And the “Threshold of tumor cell numbers” value (HPV-16; Sample # 14)?
A: Its value is 60.0 tumor cells.

Q: And the “Threshold of tumor cell numbers” value (HPV-16; Sample # 15)?
A: The value was 30.0 tumor cells.

Q: And the “Threshold of tumor cell numbers” value (HPV-16; Sample # 16)?
A: The value was 6.0 tumor cells.

Q: What about the “Threshold of tumor cell numbers” value (HPV-16; Sample # 17) of the same molecule?
A: Its value is 6.0 tumor cells.

Q: What about the “Threshold of tumor cell numbers” value (HPV-16; Sample # 18) of the same molecule?
A: The value was 1.2 tumor cells.

Q: What about the “Threshold of tumor cell numbers” value (HPV-16; Sample # 19) of the same molecule?
A: The value was 6.0 tumor cells.

Q: And the “Threshold of tumor cell numbers” value (HPV-16; Sample # 20)?
A: Its value is 1.2 tumor cells.

Q: And the “Threshold of tumor cell numbers” value (HPV-16; Sample # 21)?
A: Its value is 1.2 tumor cells.

Q: What about the “Threshold of tumor cell numbers” value (HPV-16; Sample # 22) of the same molecule?
A: Its value is 6.0 tumor cells.

Q: And the “Threshold of tumor cell numbers” value (HPV-16; Sample # 23)?
A: Its value is 1.2 tumor cells.

Q: What about the “Threshold of tumor cell numbers” value (HPV-16; Sample # 24) of the same molecule?
A: The value was 1.2 tumor cells.

Q: And the “Threshold of tumor cell numbers” value (HPV-16; Sample # 25)?
A: The value was 1.2 tumor cells.

Q: What about the “Threshold of tumor cell numbers” value (HPV-16; Sample # 26) of the same molecule?
A: The value was 1.2 tumor cells.

Q: What about the “Threshold of tumor cell numbers” value (HPV-16; Sample # 27) of the same molecule?
A: The value was 1.0 tumor cells.

Q: What about the “Threshold of tumor cell numbers” value (HPV-16; Sample # 28) of the same molecule?
A: Its value is 1.0 tumor cells.

Q: What about the “Threshold of tumor cell numbers” value (HPV-16; Sample # 29) of the same molecule?
A: The value was 1.0 tumor cells.

Q: What about the “Threshold of tumor cell numbers” value (HPV-16; Sample # 30) of the same molecule?
A: Its value is 150.0 tumor cells.

Q: What about the “Threshold of tumor cell numbers” value (HPV-16; Sample # 31) of the same molecule?
A: The value was 0.6 tumor cells.

Q: What about the “Threshold of tumor cell numbers” value (HPV-16; Sample # 32) of the same molecule?
A: The value was 15.0 tumor cells.

Q: And the “Sensitivity, 1 cell” value (HPV-16)?
A: The value was 0.031.

Q: What about the “Sensitivity, 3 cells” value (HPV-16) of the same molecule?
A: The value was 0.344.

Q: And the “Sensitivity, 10 cells” value (HPV-16)?
A: Its value is 0.469.

Q: And the “Sensitivity, 30 cells” value (HPV-16)?
A: Its value is 0.750.

Q: What about the “Sensitivity, 100 cells” value (HPV-16) of the same molecule?
A: Its value is 0.875.
